Test results from the supplement of paper PMC10567573.

B1: APBB1IP (parent)
chain: FNYSVGFKDLNESLNALEDQDLDA

Variants of: B1
Assay: protein stability index of a GFP-peptide fusion (GPS, HEK-293T) (PSI 1-6); higher = more stable
Conditions: c terminus: a fixed tail appended
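Also: lentivirally expressed fusions sorted by FACS into six bins by GFP to DsRed ratio, PSI derived from sequencing read proportions per bin multiplied by bin number.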

Variant	protein stability index
FNYSVKFKDLNESLNALEDQDLDA [G6K]	4.05
FNYSVLFKDLNESLNALEDQDLDA [G6L]	2.3
FNYSVMFKDLNESLNALEDQDLDA [G6M]	3.12
FNYSVNFKDLNESLNALEDQDLDA [G6N]	4.04
FNYSVPFKDLNESLNALEDQDLDA [G6P]	4.73
FNYSVQFKDLNESLNALEDQDLDA [G6Q]	4.17
FNYSVRFKDLNESLNALEDQDLDA [G6R]	3.9
FNYSVSFKDLNESLNALEDQDLDA [G6S]	3.89
FNYSVTFKDLNESLNALEDQDLDA [G6T]	3.57
FNYSVVFKDLNESLNALEDQDLDA [G6V]	2.55
FNYSVWFKDLNESLNALEDQDLDA [G6W]	2.32
FNYSVYFKDLNESLNALEDQDLDA [G6Y]	1.71
FNYSVGAKDLNESLNALEDQDLDA [F7A]	5.3
FNYSVGCKDLNESLNALEDQDLDA [F7C]	5.09
FNYSVGDKDLNESLNALEDQDLDA [F7D]	5.21
FNYSVGEKDLNESLNALEDQDLDA [F7E]	5.24
FNYSVGGKDLNESLNALEDQDLDA [F7G]	5.22
FNYSVGHKDLNESLNALEDQDLDA [F7H]	4.57
FNYSVGIKDLNESLNALEDQDLDA [F7I]	4.21
FNYSVGKKDLNESLNALEDQDLDA [F7K]	5.18
FNYSVGLKDLNESLNALEDQDLDA [F7L]	4.53
FNYSVGMKDLNESLNALEDQDLDA [F7M]	4.48
FNYSVGNKDLNESLNALEDQDLDA [F7N]	5.13
FNYSVGPKDLNESLNALEDQDLDA [F7P]	4.49

Variant	protein stability index
FNYSVGQKDLNESLNALEDQDLDA [F7Q]	5.15
FNYSVGRKDLNESLNALEDQDLDA [F7R]	5.71
FNYSVGSKDLNESLNALEDQDLDA [F7S]	5.41
FNYSVGTKDLNESLNALEDQDLDA [F7T]	5.27
FNYSVGVKDLNESLNALEDQDLDA [F7V]	4.92
FNYSVGWKDLNESLNALEDQDLDA [F7W]	3.9
FNYSVGYKDLNESLNALEDQDLDA [F7Y]	4.55
FNYSVGFADLNESLNALEDQDLDA [K8A]	4.16
FNYSVGFCDLNESLNALEDQDLDA [K8C]	3.36
FNYSVGFDDLNESLNALEDQDLDA [K8D]	5.05
FNYSVGFEDLNESLNALEDQDLDA [K8E]	5.1
FNYSVGFFDLNESLNALEDQDLDA [K8F]	2.99
FNYSVGFGDLNESLNALEDQDLDA [K8G]	4.65
FNYSVGFHDLNESLNALEDQDLDA [K8H]	3.81
FNYSVGFIDLNESLNALEDQDLDA [K8I]	2.51
FNYSVGFLDLNESLNALEDQDLDA [K8L]	3.17
FNYSVGFMDLNESLNALEDQDLDA [K8M]	3.73
FNYSVGFNDLNESLNALEDQDLDA [K8N]	4.74
FNYSVGFPDLNESLNALEDQDLDA [K8P]	4.79
FNYSVGFQDLNESLNALEDQDLDA [K8Q]	4.72
FNYSVGFRDLNESLNALEDQDLDA [K8R]	4.33
FNYSVGFSDLNESLNALEDQDLDA [K8S]	4.56
FNYSVGFTDLNESLNALEDQDLDA [K8T]	3.54
FNYSVGFVDLNESLNALEDQDLDA [K8V]	3.52

Variant	protein stability index
FNYSVGFWDLNESLNALEDQDLDA [K8W]	2.27
FNYSVGFYDLNESLNALEDQDLDA [K8Y]	3.58
FNYSVGFKALNESLNALEDQDLDA [D9A]	3.99
FNYSVGFKCLNESLNALEDQDLDA [D9C]	3.13
FNYSVGFKELNESLNALEDQDLDA [D9E]	4.25
FNYSVGFKFLNESLNALEDQDLDA [D9F]	3.52
FNYSVGFKGLNESLNALEDQDLDA [D9G]	4.39
FNYSVGFKHLNESLNALEDQDLDA [D9H]	4.08
FNYSVGFKILNESLNALEDQDLDA [D9I]	2.49
FNYSVGFKKLNESLNALEDQDLDA [D9K]	4.19
FNYSVGFKLLNESLNALEDQDLDA [D9L]	3.09
FNYSVGFKMLNESLNALEDQDLDA [D9M]	3.86
FNYSVGFKNLNESLNALEDQDLDA [D9N]	4.31
FNYSVGFKPLNESLNALEDQDLDA [D9P]	4.15
FNYSVGFKQLNESLNALEDQDLDA [D9Q]	4.22
FNYSVGFKRLNESLNALEDQDLDA [D9R]	4.05
FNYSVGFKSLNESLNALEDQDLDA [D9S]	3.45
FNYSVGFKTLNESLNALEDQDLDA [D9T]	4.2
FNYSVGFKVLNESLNALEDQDLDA [D9V]	2.67
FNYSVGFKWLNESLNALEDQDLDA [D9W]	2.7
FNYSVGFKYLNESLNALEDQDLDA [D9Y]	3.44
FNYSVGFKDANESLNALEDQDLDA [L10A]	4.71
FNYSVGFKDCNESLNALEDQDLDA [L10C]	3.5
FNYSVGFKDDNESLNALEDQDLDA [L10D]	5.16

Variant	protein stability index
FNYSVGFKDENESLNALEDQDLDA [L10E]	5.09
FNYSVGFKDFNESLNALEDQDLDA [L10F]	3.95
FNYSVGFKDGNESLNALEDQDLDA [L10G]	4.95
FNYSVGFKDHNESLNALEDQDLDA [L10H]	4.58
FNYSVGFKDINESLNALEDQDLDA [L10I]	4.26
FNYSVGFKDKNESLNALEDQDLDA [L10K]	4.88
FNYSVGFKDMNESLNALEDQDLDA [L10M]	4.81
FNYSVGFKDNNESLNALEDQDLDA [L10N]	4.75
FNYSVGFKDPNESLNALEDQDLDA [L10P]	4.62
FNYSVGFKDQNESLNALEDQDLDA [L10Q]	4.93
FNYSVGFKDRNESLNALEDQDLDA [L10R]	4.54
FNYSVGFKDSNESLNALEDQDLDA [L10S]	5.06
FNYSVGFKDTNESLNALEDQDLDA [L10T]	4.55
FNYSVGFKDVNESLNALEDQDLDA [L10V]	4.86
FNYSVGFKDWNESLNALEDQDLDA [L10W]	3.95
FNYSVGFKDYNESLNALEDQDLDA [L10Y]	4.52
FNYSVGFKDLAESLNALEDQDLDA [N11A]	4.45
FNYSVGFKDLCESLNALEDQDLDA [N11C]	4.06
FNYSVGFKDLDESLNALEDQDLDA [N11D]	4.75
FNYSVGFKDLEESLNALEDQDLDA [N11E]	4.88
FNYSVGFKDLFESLNALEDQDLDA [N11F]	3.62
FNYSVGFKDLGESLNALEDQDLDA [N11G]	4.29
FNYSVGFKDLHESLNALEDQDLDA [N11H]	4.21
FNYSVGFKDLIESLNALEDQDLDA [N11I]	3.31

Variant	protein stability index
FNYSVGFKDLKESLNALEDQDLDA [N11K]	4.17
FNYSVGFKDLLESLNALEDQDLDA [N11L]	3.78
FNYSVGFKDLMESLNALEDQDLDA [N11M]	3.68
FNYSVGFKDLPESLNALEDQDLDA [N11P]	4.23
FNYSVGFKDLQESLNALEDQDLDA [N11Q]	4.38
FNYSVGFKDLRESLNALEDQDLDA [N11R]	4.18
FNYSVGFKDLSESLNALEDQDLDA [N11S]	4.21
FNYSVGFKDLTESLNALEDQDLDA [N11T]	4.58
FNYSVGFKDLVESLNALEDQDLDA [N11V]	3.45
FNYSVGFKDLWESLNALEDQDLDA [N11W]	2.58
FNYSVGFKDLYESLNALEDQDLDA [N11Y]	3.25
FNYSVGFKDLNASLNALEDQDLDA [E12A]	3.74
FNYSVGFKDLNCSLNALEDQDLDA [E12C]	2.82
FNYSVGFKDLNDSLNALEDQDLDA [E12D]	4.32
FNYSVGFKDLNFSLNALEDQDLDA [E12F]	3.63
FNYSVGFKDLNGSLNALEDQDLDA [E12G]	4.2
FNYSVGFKDLNHSLNALEDQDLDA [E12H]	3.69
FNYSVGFKDLNISLNALEDQDLDA [E12I]	3.69
FNYSVGFKDLNKSLNALEDQDLDA [E12K]	4.29
FNYSVGFKDLNLSLNALEDQDLDA [E12L]	3.23
FNYSVGFKDLNMSLNALEDQDLDA [E12M]	3.87
FNYSVGFKDLNNSLNALEDQDLDA [E12N]	4.37
FNYSVGFKDLNPSLNALEDQDLDA [E12P]	4.53
FNYSVGFKDLNQSLNALEDQDLDA [E12Q]	4.28

Variant	protein stability index
FNYSVGFKDLNRSLNALEDQDLDA [E12R]	3.92
FNYSVGFKDLNSSLNALEDQDLDA [E12S]	4.17
FNYSVGFKDLNTSLNALEDQDLDA [E12T]	4.24
FNYSVGFKDLNVSLNALEDQDLDA [E12V]	3.96
FNYSVGFKDLNWSLNALEDQDLDA [E12W]	2.8
FNYSVGFKDLNYSLNALEDQDLDA [E12Y]	3.12
FNYSVGFKDLNEALNALEDQDLDA [S13A]	4.56
FNYSVGFKDLNECLNALEDQDLDA [S13C]	4.25
FNYSVGFKDLNEDLNALEDQDLDA [S13D]	4.31
FNYSVGFKDLNEELNALEDQDLDA [S13E]	3.95
FNYSVGFKDLNEFLNALEDQDLDA [S13F]	3.34
FNYSVGFKDLNEGLNALEDQDLDA [S13G]	4.58
FNYSVGFKDLNEHLNALEDQDLDA [S13H]	4.51
FNYSVGFKDLNEILNALEDQDLDA [S13I]	2.88
FNYSVGFKDLNEKLNALEDQDLDA [S13K]	3.8
FNYSVGFKDLNELLNALEDQDLDA [S13L]	2.83
FNYSVGFKDLNEMLNALEDQDLDA [S13M]	3.88
FNYSVGFKDLNENLNALEDQDLDA [S13N]	4.17
FNYSVGFKDLNEPLNALEDQDLDA [S13P]	4.41
FNYSVGFKDLNEQLNALEDQDLDA [S13Q]	4.51
FNYSVGFKDLNERLNALEDQDLDA [S13R]	4.15
FNYSVGFKDLNETLNALEDQDLDA [S13T]	3.72
FNYSVGFKDLNEVLNALEDQDLDA [S13V]	3.67
FNYSVGFKDLNEWLNALEDQDLDA [S13W]	2.85

Variant	protein stability index
FNYSVGFKDLNEYLNALEDQDLDA [S13Y]	3.54
FNYSVGFKDLNESANALEDQDLDA [L14A]	4.71
FNYSVGFKDLNESCNALEDQDLDA [L14C]	3.86
FNYSVGFKDLNESDNALEDQDLDA [L14D]	4.89
FNYSVGFKDLNESENALEDQDLDA [L14E]	4.51
FNYSVGFKDLNESFNALEDQDLDA [L14F]	4
FNYSVGFKDLNESGNALEDQDLDA [L14G]	4.9
FNYSVGFKDLNESHNALEDQDLDA [L14H]	5.1
FNYSVGFKDLNESINALEDQDLDA [L14I]	4.71
FNYSVGFKDLNESKNALEDQDLDA [L14K]	4.48
FNYSVGFKDLNESMNALEDQDLDA [L14M]	4.61
FNYSVGFKDLNESNNALEDQDLDA [L14N]	5.06
FNYSVGFKDLNESPNALEDQDLDA [L14P]	4.76
FNYSVGFKDLNESQNALEDQDLDA [L14Q]	4.88
FNYSVGFKDLNESRNALEDQDLDA [L14R]	4.57
FNYSVGFKDLNESSNALEDQDLDA [L14S]	4.47
FNYSVGFKDLNESTNALEDQDLDA [L14T]	4.98
FNYSVGFKDLNESVNALEDQDLDA [L14V]	4.5
FNYSVGFKDLNESWNALEDQDLDA [L14W]	4.05
FNYSVGFKDLNESYNALEDQDLDA [L14Y]	4.49
FNYSVGFKDLNESLAALEDQDLDA [N15A]	4.44
FNYSVGFKDLNESLCALEDQDLDA [N15C]	4.32
FNYSVGFKDLNESLDALEDQDLDA [N15D]	4.77
FNYSVGFKDLNESLEALEDQDLDA [N15E]	4.14

Variant	protein stability index
FNYSVGFKDLNESLFALEDQDLDA [N15F]	3.72
FNYSVGFKDLNESLGALEDQDLDA [N15G]	4.78
FNYSVGFKDLNESLHALEDQDLDA [N15H]	4.08
FNYSVGFKDLNESLIALEDQDLDA [N15I]	4.01
FNYSVGFKDLNESLKALEDQDLDA [N15K]	4.77
FNYSVGFKDLNESLLALEDQDLDA [N15L]	4.04
FNYSVGFKDLNESLMALEDQDLDA [N15M]	4.39
FNYSVGFKDLNESLPALEDQDLDA [N15P]	5
FNYSVGFKDLNESLQALEDQDLDA [N15Q]	4.28
FNYSVGFKDLNESLRALEDQDLDA [N15R]	3.64
FNYSVGFKDLNESLSALEDQDLDA [N15S]	4.15
FNYSVGFKDLNESLTALEDQDLDA [N15T]	4.78
FNYSVGFKDLNESLVALEDQDLDA [N15V]	4.7
FNYSVGFKDLNESLWALEDQDLDA [N15W]	2.92
FNYSVGFKDLNESLYALEDQDLDA [N15Y]	3.62
FNYSVGFKDLNESLNCLEDQDLDA [A16C]	4.47
FNYSVGFKDLNESLNDLEDQDLDA [A16D]	4.6
FNYSVGFKDLNESLNELEDQDLDA [A16E]	5.02
FNYSVGFKDLNESLNFLEDQDLDA [A16F]	3.92
FNYSVGFKDLNESLNGLEDQDLDA [A16G]	3.94
